# Source: patent US20210388087A1 (Chugai, published 2021)
# Residue numbers refer to the chain shown, from its start.
# B1: CE115HA000 N54D (antibody, human IgG1, kappa, L234A L235A, N297A, name in Kabat numbering)
# heavy: QVQLVESGGGVVQPGRSLRLSCAASGFTFSNAWMHWVRQAPGKGLEWVAQIKAKSNDYATYYAESVKGRFTISRDDSKNSLYLQMNSLKTEDTAVYYCRYVHYGAYYGVDAWGQGTTVTVSSASTKGPSVFPLAPSSKSTSGGTAALGCLVKDYFPEPVTVSWNSGALTSGVHTFPAVLQSSGLYSLSSVVTVPSSSLGTQTYICNVNHKPSNTKVDKKVEPKSCDKTHTCPPCPAPEAAGGPSVFLFPPKPKDTLMISRTPEVTCVVVDVSHEDPEVKFNWYVDGVEVHNAKTKPREEQYASTYRVVSVLTVLHQDWLNGKEYKCKVSNKALPAPIEKTISKAKGQPREPQVYTLPPSRCELTKNQVSLSCAVKGFYPSDIAVEWESNGQPENNYKTTPPVLDSDGSFFLVSKLTVDKSRWQQGNVFSCSVMHEALHNHYTQKSLSLSPDYKDDDDK
# chain: EPKSSDKTHTCPPCPAPELLGGPSVFLFPPKPKDTLMISRTPEVTCVVVDVSHEDPEVKFNWYVDGVEVHNAKTKPREEQYNSTYRVVSVLTVLHQDWLNGKEYKCKVSNKALPAPIEKTISKAKGQPREPQVCTLPPSRDELTKNQVSLWCLVKGFYPSDIAVEWESNGQPENNYKTTPPVLDSDGSFFLYSKLTVDKSRWQQGNVFSCSVMHEALHNRYTQKSLSLSP
# light: DIVMTQSPLSLPVTPGEPASISCRSSQSLVHSNRNTYLHWYQQKPGQAPRLLIYKVSNRFSGVPDRFSGSGSGTDFTLKISRVEAEDVGVYYCGQGTQVPYTFGQGTKLEIKRTVAAPSVFIFPPSDEQLKSGTASVVCLLNNFYPREAKVQWKVDNALQSGNSQESVTEQDSKDSTYSLSSTLTLSKADYEKHKVYACEVTHQGLSSPVTKSFNRGEC
# notes: one-arm antibody
# B2: CE115HA000 Q50E (antibody, human IgG1, kappa, L234A L235A, N297A, name in Kabat numbering)
# heavy: B1 heavy with Q50E, D57N
# chain: B1 chain
# light: B1 light
# notes: one-arm antibody
# B3: CE115HA000 S52cF (antibody, human IgG1, kappa, L234A L235A, N297A, name in Kabat numbering)
# heavy: B1 heavy with S55F, D57N
# chain: B1 chain
# light: B1 light
# notes: one-arm antibody
# B4: CE115HA000 S52cY (antibody, human IgG1, kappa, L234A L235A, N297A, name in Kabat numbering)
# heavy: B1 heavy with S55Y, D57N
# chain: B1 chain
# light: B1 light
# notes: one-arm antibody
# B5: CE115HA000 S52cD (antibody, human IgG1, kappa, L234A L235A, N297A, name in Kabat numbering)
# heavy: B1 heavy with S55D, D57N
# chain: B1 chain
# light: B1 light
# notes: one-arm antibody
# B6: CE115HA000 Q50L (antibody, human IgG1, kappa, L234A L235A, N297A, name in Kabat numbering)
# heavy: B1 heavy with Q50L, D57N
# chain: B1 chain
# light: B1 light
# notes: one-arm antibody
# B7: CE115HA000 S52cQ (antibody, human IgG1, kappa, L234A L235A, N297A, name in Kabat numbering)
# heavy: B1 heavy with S55Q, D57N
# chain: B1 chain
# light: B1 light
# notes: one-arm antibody
# B8: CE115HA000 N54S (antibody, human IgG1, kappa, L234A L235A, N297A, name in Kabat numbering)
# heavy: B1 heavy with D57S
# chain: B1 chain
# light: B1 light
# notes: one-arm antibody
# B9: CE115HA000 N54F (antibody, human IgG1, kappa, L234A L235A, N297A, name in Kabat numbering)
# heavy: B1 heavy with D57F
# chain: B1 chain
# light: B1 light
# notes: one-arm antibody
# B10: CE115HA000 S52cL (antibody, human IgG1, kappa, L234A L235A, N297A, name in Kabat numbering)
# heavy: B1 heavy with S55L, D57N
# chain: B1 chain
# light: B1 light
# notes: one-arm antibody
# B11: CE115HA000 N54Q (antibody, human IgG1, kappa, L234A L235A, N297A, name in Kabat numbering)
# heavy: B1 heavy with D57Q
# chain: B1 chain
# light: B1 light
# notes: one-arm antibody
# B12: CE115HA000 R19T (antibody, human IgG1, kappa, L234A L235A, N297A, name in Kabat numbering)
# heavy: B1 heavy with R19T, D57N
# chain: B1 chain
# light: B1 light
# notes: one-arm antibody
# B13: CE115HA000 Q50D (antibody, human IgG1, kappa, L234A L235A, N297A, name in Kabat numbering)
# heavy: B1 heavy with Q50D, D57N
# chain: B1 chain
# light: B1 light
# notes: one-arm antibody
# B14: CE115HA000 S52cK (antibody, human IgG1, kappa, L234A L235A, N297A, name in Kabat numbering)
# heavy: B1 heavy with S55K, D57N
# chain: B1 chain
# light: B1 light
# notes: one-arm antibody
# B15: CE115HA000 S52cV (antibody, human IgG1, kappa, L234A L235A, N297A, name in Kabat numbering)
# heavy: B1 heavy with S55V, D57N
# chain: B1 chain
# light: B1 light
# notes: one-arm antibody
# B16: CE115HA000 N54G (antibody, human IgG1, kappa, L234A L235A, N297A, name in Kabat numbering)
# heavy: B1 heavy with D57G
# chain: B1 chain
# light: B1 light
# notes: one-arm antibody
# B17: CE115HA000 Q50I (antibody, human IgG1, kappa, L234A L235A, N297A, name in Kabat numbering)
# heavy: B1 heavy with Q50I, D57N
# chain: B1 chain
# light: B1 light
# notes: one-arm antibody
# B18: CE115HA000 S52cA (antibody, human IgG1, kappa, L234A L235A, N297A, name in Kabat numbering)
# heavy: B1 heavy with S55A, D57N
# chain: B1 chain
# light: B1 light
# notes: one-arm antibody
# B19: CE115HA000 S30D (antibody, human IgG1, kappa, L234A L235A, N297A, name in Kabat numbering)
# heavy: B1 heavy with S30D, D57N
# chain: B1 chain
# light: B1 light
# notes: one-arm antibody
# B20: CE115HA000 N82aD (antibody, human IgG1, kappa, L234A L235A, N297A, name in Kabat numbering)
# heavy: B1 heavy with D57N, N86D
# chain: B1 chain
# light: B1 light
# notes: one-arm antibody
# B21: CE115HA000 N54Y (antibody, human IgG1, kappa, L234A L235A, N297A, name in Kabat numbering)
# heavy: B1 heavy with D57Y
# chain: B1 chain
# light: B1 light
# notes: one-arm antibody
# B22: CE115HA000 Q50A (antibody, human IgG1, kappa, L234A L235A, N297A, name in Kabat numbering)
# heavy: B1 heavy with Q50A, D57N
# chain: B1 chain
# light: B1 light
# notes: one-arm antibody
# B23: CE115HA000 N76S (antibody, human IgG1, kappa, L234A L235A, N297A, name in Kabat numbering)
# heavy: B1 heavy with D57N, N79S
# chain: B1 chain
# light: B1 light
# notes: one-arm antibody
# B24: CE115HA000 Q50S (antibody, human IgG1, kappa, L234A L235A, N297A, name in Kabat numbering)
# heavy: B1 heavy with Q50S, D57N
# chain: B1 chain
# light: B1 light
# notes: one-arm antibody
# B25: CE115HA000 N54K (antibody, human IgG1, kappa, L234A L235A, N297A, name in Kabat numbering)
# heavy: B1 heavy with D57K
# chain: B1 chain
# light: B1 light
# notes: one-arm antibody
# B26: CE115HA000 N54L (antibody, human IgG1, kappa, L234A L235A, N297A, name in Kabat numbering)
# heavy: B1 heavy with D57L
# chain: B1 chain
# light: B1 light
# notes: one-arm antibody
# B27: CE115HA000 Q50Y (antibody, human IgG1, kappa, L234A L235A, N297A, name in Kabat numbering)
# heavy: B1 heavy with Q50Y, D57N
# chain: B1 chain
# light: B1 light
# notes: one-arm antibody
# B28: CE115HA000 S30G (antibody, human IgG1, kappa, L234A L235A, N297A, name in Kabat numbering)
# heavy: B1 heavy with S30G, D57N
# chain: B1 chain
# light: B1 light
# notes: one-arm antibody
# B29: CE115HA000 R16Q (antibody, human IgG1, kappa, L234A L235A, N297A, name in Kabat numbering)
# heavy: B1 heavy with R16Q, D57N
# chain: B1 chain
# light: B1 light
# notes: one-arm antibody
# B30: CE115HA000 R16E (antibody, human IgG1, kappa, L234A L235A, N297A, name in Kabat numbering)
# heavy: B1 heavy with R16E, D57N
# chain: B1 chain
# light: B1 light
# notes: one-arm antibody
# B31: CE115HA000 Q50K (antibody, human IgG1, kappa, L234A L235A, N297A, name in Kabat numbering)
# heavy: B1 heavy with Q50K, D57N
# chain: B1 chain
# light: B1 light
# notes: one-arm antibody
# B32: CE115HA000 S52cG (antibody, human IgG1, kappa, L234A L235A, N297A, name in Kabat numbering)
# heavy: B1 heavy with S55G, D57N
# chain: B1 chain
# light: B1 light
# notes: one-arm antibody
# B33: CE115HA000 Q105E (antibody, human IgG1, kappa, L234A L235A, N297A, name in Kabat numbering)
# heavy: B1 heavy with D57N, Q114E
# chain: B1 chain
# light: B1 light
# notes: one-arm antibody
# Molecular target: T1, CD3 epsilon homodimer protein (UniProt P07766 23-126)
# T1 construct: also called CD3 (CD3 epsilon)
# T1 sequence (P07766 23-126): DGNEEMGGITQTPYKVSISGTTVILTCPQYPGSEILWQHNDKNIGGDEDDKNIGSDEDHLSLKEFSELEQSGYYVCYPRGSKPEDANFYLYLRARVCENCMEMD
# Experiment: SPR, CD3 epsilon homodimer on chip, one-arm antibody as analyte;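 further: surface plasmon resonance at 25 °C with CD3 epsilon homodimer amine-coupled to a CM4 sensor chip, antibody injected as analyte, HBS-EP+ as running buffer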
# Description: An appropriate amount of CD3 epsilon homodimer protein was immobilized onto Sensor chip CM4 (GE Healthcare Japan Corp.) by the amine coupling method. Then, the antibody having an appropriate concentration was injected thereto as an analyte and allowed to interact with the CD3 epsilon homodimer protein on the sensor chip. Then, the sensor chip was regenerated by the injection of 10 mmol/L glycine-HCl (pH 1.5). The assay was conducted at 25 degrees C., and HBS-EP+(GE Healthcare Japan Corp.) was used as a running buffer. […] Each parameter was calculated using Biacore T200 Evaluation Software (GE Healthcare Japan Corp.).
row,KD ratio (KD of CE115HA000/KD of altered form),Binder
1,0.59,B1
2,16700,B2
3,0.93,B3
4,0.87,B4
5,0.55,B5
6,1.41,B6
7,0.97,B7
8,0.57,B8
9,0.97,B9
10,0.94,B10
11,0.8,B11
12,0.81,B12
13,75.4,B13
14,0.86,B14
15,0.82,B15
16,0.84,B16
17,1.21,B17

row,KD ratio (KD of CE115HA000/KD of altered form),Binder
1,0.87,B18
2,0.79,B19
3,0.56,B20
4,1.03,B21
5,22.6,B22
6,0.84,B23
7,47.4,B24
8,0.82,B25
9,0.91,B26
10,49.1,B27
11,0.93,B28
12,0.87,B29
13,0.74,B30
14,0.71,B31
15,0.81,B32
16,0.89,B33
